Experimental data reported in patent US7056679B2, “Target specific screening and its use for identifying target binders” (Antyra, Inc., priority 2001, dated 2006).

How the values were obtained:
[1] = biological target: T1, DGI-2 (Homo sapiens, UniProt Q15004); test: ELISA analysis of phage on DGI-2 polypeptide (specific binding); details: for DGI-2 (OD): binding to DGI-2 polypeptide (specific binding), phage ELISA units read at 405 nm; for DGI-2/LDH (OD): ratio of specific binding to non-specific binding
T1 construct: encompassed the entire DGI-2 open reading frame (ORF); His-tag of vector pIVEX2.3-MCS (inferred from the vector and from the reverse primer lacking a stop codon); made in house; host or cells: cell-free in vitro translation (Rapid Translation System RTS, Roche; E. coli lysate)
T1 sequence (Q15004 1-111): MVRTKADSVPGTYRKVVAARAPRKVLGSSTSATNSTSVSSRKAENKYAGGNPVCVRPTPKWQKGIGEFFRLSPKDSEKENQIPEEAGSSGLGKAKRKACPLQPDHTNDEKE
Procedure: To verify that the selected target binders bound to DGI-2, Elisa assays were performed with recombinant DGI-2. DGI-2 was subcloned and expressed using conventional methods as described below.
Protein yields were satisfactory, but most of protein was found in inclusion bodies. Next, DGI-2 was expressed using an in vitro translation system (Rapid Translation System RTS 5000, Roche Diagnostics GmbH, Mannheim Germany). For this system, the DGI-2 ORF was cloned into the pIVEX2.3-MCS vector (Roche Diagnostics) using restriction sites Nde I and Hind III, which were added to DGI-2 by PCR. […] The primers used for the PCR amplification were as follows: […]
(§1) For analysis of individual target binders, colonies were picked and phage prepared as described above using helper phage, M13KO7. Ninety-six-well microtiter plates were coated with 500 ng/well of specific target protein, 500 ng/well lactate dehydrogenase (LDH) irrelevant or non-specific target, 500 ng/well of positive control antibody raised against ETAG, and negative control of non-fat milk powder-PBS 2% at 4° C. overnight. Plates were then blocked with 350 microliters/well PBS containing 2% non-fat milk for 1 hr at room temperature. One hundred microliters per well of phage from isolated clones were added and plates were incubated at room temperature for 2 hr after centrifuging samples for 20 minutes at 3500 rpm at 4° C. The phage solution was then removed, and the wells were washed three times with PBS at room temperature. Antibody raised against M13 conjugated to horseradish peroxidase (Pharmacia) was diluted 1:3000 in PBS-Tween and added to each well (100 μl/well). Incubation was for 1 hr at room temperature, followed by washing with PBS-(0.5%) Tween 3 times as described. Color was developed by addition of ABTS solution (100 μl/well; Boehringer, Indianapolis, Ind.). Plates were analyzed at 405 nm. A clone was considered “positive” if the A405 of the well was ≧2-fold over background.

[2] = system: lactate dehydrogenase (LDH); test: ELISA analysis of phage on LDH (irrelevant, non-specific target); type: binding; details: peptide binding to LDH polypeptide (non-specific binding); phage ELISA units read at 405 nm
Procedure: as §1

[3] = system: E-tag antibody; test: ELISA analysis of phage on antibody raised against ETAG (positive control); details: peptide binding to E-tag antibody; phage ELISA units read at 405 nm
Procedure: as §1

Sequence | DGI-2 (OD) [1] [OD] | DGI-2/LDH (OD) [1] | LDH (OD) [2] [OD] | ETAG (OD) [3] [OD]
FRVALLSVSAGPCEGSGNT (DGI-2-20F-PP-H7; listed as Escherichia coli) | 1.8 | 2.1 | 0.8 | 3.7
FSSTGILLRSGRATAVGHVT (DGI-2-20F-3-A6; listed as Escherichia coli) | 1.5 | 1.4 | 1.1 | 13.2
FSSVLGLLDRRGVPVVVGED (DGI-2-20F-3-C3; listed as Escherichia coli) | 1.1 | 1.1 | 0.9 | 11.6
GAIRLSGAAWTASRTGGRAS (DGI-2-20F-PP-E7; listed as Escherichia coli) | 1.6 | 1.8 | 0.9 | 21.5
GASRVVDVGWRFWGKLWQRS (DGI-2-20F-PP-G5; listed as Escherichia coli) | 2.4 | 2.0 | 1.2 | 27.7
GEVDCVYALTHRFLSPQVQYHIHRPV (GEVDCVYALTHRFLSPQVQYHHRPV; DGI-2-20C-3-A12; listed as Escherichia coli) | 0.9 | 1.0 | 0.9 | 8.1
GGDLGEQGVQLCPDVVRGGSL (DGI-2-20F-PP-A7; listed as Escherichia coli) | 2.6 | 2.8 | 0.9 | 42.2
GGGRESWGGGWFMGWGSGAG (DGI-2-20R-3-A6; listed as Escherichia coli) | 5.8 | 5.9 | 1.0 | 17.7
GGSLPVKSGQLVTCCTSKGG (DGI-2-20F-PP-F5; listed as Escherichia coli) | 2.3 | 2.5 | 0.9 | 16.3
GHGAGDWAAELFVCPVAFLTGFAWR (DGI-2-20R-4-H2; listed as Escherichia coli) | 9.9 | 9.2 | 1.1 | 12.9
GIMQVAWGWREMTRLWDLGMA (GIMQVAWGWREWRLWDLGMA; DGI-2-20R-3-C6; listed as Escherichia coli) | 6.0 | 5.2 | 1.1 | 20.3
GITGLFCLCLRSSQSI (DGI-2-20F-PP-D6; listed as Escherichia coli) [DGI-2-20F-P0P-D6] | 3.3 | 3.2 | 1.0 | 5.7
GLEPVPFQTDKRIAMGWTREWLVNGYGAAHRRDARMQSGH (DGI-2-40F-3-D6; listed as Escherichia coli) | 2.5 | 2.6 | 1.0 | 11.4
GLLFTSSPYQCFWVHCTLTMSPLSVLGDLSSTIGRMRASR (DGI-2-40F-3-C52; listed as Escherichia coli) | 1.0 | 1.3 | 0.8 | 4.6
GLRACDTYLGFCVGARRIDD (DGI-2-20F-3-B102; listed as Escherichia coli) | 2.4 | 2.5 | 1.0 | 18.0
GLYQRGLAPRCRGERFGVRN (DGI-2-20F-PP-C2; listed as Escherichia coli) | 2.7 | 2.5 | 1.1 | 6.0
GLYRRAGDASVGFSRWGREDCQVYFSVECLLGSSWGGYS (GLYRRAGDASVGFSRWGRFDCQVYFSVECLLGSSWGGYS; DGI-2-40F-4-F12; listed as Escherichia coli) | 2.2 | 2.5 | 0.9 | 8.7
GMWIRPNGHMELQGGYTARS (GMWIRPNGHMFLQGGYTARS; DGI-2-20R-4-G8; listed as Escherichia coli) | 1.5 | 1.4 | 1.1 | 14.5
GNKCFPPHDLFWDPCDQLQS (DGI-2-20R-4-F6; listed as Escherichia coli) | 2.3 | 2.3 | 1.0 | 13.2
GQISLAGVAVCSSERMLLAFSSRVFLPGLKVPVTTSQRGS (DGI-2-40F-3-A8; listed as Escherichia coli) | 0.8 | 1.1 | 0.8 | 1.5
GRAGTSMTELVAWGFVQRVG (DGI-2-20F-PP-H10; listed as Escherichia coli) | 1.4 | 1.9 | 0.7 | 13.0
GRWDGWEVCGIWGADDCASG (DGI-2-20R-4-H1; listed as Escherichia coli) | 9.3 | 7.8 | 1.2 | 14.0
GSTRLRVTVRFCSETGTPGC (DGI-2-20F-PP-G6; listed as Escherichia coli) | 2.7 | 2.5 | 1.1 | 36.1
GSVLERGCLEFSGFCFSLGH (DGI-2-20F-3-C1; listed as Escherichia coli) | 3.4 | 3.4 | 1.0 | 14.0
GVVRAQQGLRYELQGDRYRLRRTQWLTVTYCSPSWAFAGC (DGI-2-40F-3-B116; listed as Escherichia coli) | 1.7 | 2.0 | 0.8 | 6.5
GWGCSVPGILCVGGHRQGGG (DGI-2-20R-3-B11; listed as Escherichia coli) | 5.9 | 5.7 | 1.0 | 16.9
GWSDFVATGSWSGQVSAALN (DGI-2-20R-4-F120; listed as Escherichia coli) | 13.6 | 12.2 | 1.1 | 16.5
HGTRLRGVDYVMTWAGWQGYSSRKHVQQAVAGSSPGSDEL (DGI-2-40F-3-B1; listed as Escherichia coli) | 0.8 | 1.2 | 0.7 | 6.3
